# Experimental data reported in paper doi:10.1101/659037.
# Experiments:
# [1] = biological target: rPrP90-231 (globular domain of recombinant prion protein) (murine, UniProt P04925 90-231); assay: ITC
# [2] = biological target: rPrP23-231 (full-length recombinant prion protein) (murine, UniProt P04925 23-231); assay: ITC
Binder,Kd [1],Kd [2]
CCGCGTACAATCGAGCTCGGGTGTC (structured_DNA) [A1],232 nM,838 nM
TGGTGGTAACAGACCCTTCCACGGC (ssDNA) [A2],1930 nM,1470 nM
